Test results published in paper PMC10397247.
Values belong to the binder of their own block, whether it stands above or below them.

Legend:
[1] = biological target: T1, P8A-bP; experiment: two-hybrid library CCNG1;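 note: natural log of median RNA to DNA barcode read ratio; higher means stronger binding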
T1 chain: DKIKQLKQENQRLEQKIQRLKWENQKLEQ

[2] = biological target: T2, P12A-bP; experiment: two-hybrid library CCNG1;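 note: natural log of median RNA to DNA barcode read ratio; higher means stronger binding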
T2 chain: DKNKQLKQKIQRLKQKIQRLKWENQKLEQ

[3] = biological target: T3, P11A-bP; experiment: two-hybrid library CCNG1;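 note: natural log of median RNA to DNA barcode read ratio; higher means stronger binding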
T3 chain: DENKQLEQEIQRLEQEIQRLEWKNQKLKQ

[4] = biological target: T4, P6A-bP; experiment: two-hybrid library CCNG1;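 note: natural log of median RNA to DNA barcode read ratio; higher means stronger binding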
T4 chain: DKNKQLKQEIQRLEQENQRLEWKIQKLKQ

[5] = biological target: T5, P4A-bP; experiment: two-hybrid library CCNG1;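 note: natural log of median RNA to DNA barcode read ratio; higher means stronger binding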
T5 chain: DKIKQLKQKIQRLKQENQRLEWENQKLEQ

[6] = biological target: T6, P2A-bP; experiment: two-hybrid library CCNG1;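 note: natural log of median RNA to DNA barcode read ratio; higher means stronger binding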
T6 chain: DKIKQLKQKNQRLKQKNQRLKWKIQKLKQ

[7] = biological target: T7, P7A-bP; experiment: two-hybrid library CCNG1
T7 chain: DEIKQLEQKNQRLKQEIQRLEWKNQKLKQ

[8] = biological target: T8, P3A-bP; experiment: two-hybrid library CCNG1
T8 chain: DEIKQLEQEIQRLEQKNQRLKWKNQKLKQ

[9] = biological target: T9, P1A-bP; experiment: two-hybrid library CCNG1
T9 chain: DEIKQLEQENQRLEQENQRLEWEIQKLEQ

[10] = biological target: T10, P5A-bP; experiment: two-hybrid library CCNG1
T10 chain: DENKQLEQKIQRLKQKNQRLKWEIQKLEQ

[11] = biological target: T11, P2-AA-1HAA-E; experiment: two-hybrid library CCmax; settings: mean of both orientations
T11 chain: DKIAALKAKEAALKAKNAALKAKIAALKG

[12] = biological target: T12, P2-AA-1HAA-V; experiment: two-hybrid library CCmax; settings: mean of both orientations
T12 chain: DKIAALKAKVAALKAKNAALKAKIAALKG

[13] = biological target: T13, P2-AA-1HAA-D; experiment: two-hybrid library CCmax; settings: mean of both orientations
T13 chain: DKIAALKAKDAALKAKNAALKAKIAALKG

[14] = biological target: T14, P2-AA-1HAA-T; experiment: two-hybrid library CCmax; settings: mean of both orientations
T14 chain: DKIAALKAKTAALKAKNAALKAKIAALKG

[15] = biological target: T15, P2-AA-1HAA-S; experiment: two-hybrid library CCmax; settings: mean of both orientations
T15 chain: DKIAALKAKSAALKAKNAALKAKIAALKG

[16] = biological target: T16, P2-AA-1HAA-I; experiment: two-hybrid library CCmax; settings: mean of both orientations
T16 chain: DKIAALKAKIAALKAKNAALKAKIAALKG

[17] = biological target: T17, P2-AA-1HAA-Y; experiment: two-hybrid library CCmax; settings: mean of both orientations
T17 chain: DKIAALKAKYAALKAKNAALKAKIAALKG

[18] = biological target: T18, P2-AA; experiment: two-hybrid library CCmax; settings: mean of both orientations
T18 chain: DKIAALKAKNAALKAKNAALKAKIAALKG

[19] = biological target: T19, P2-AA-1HAA-K; experiment: two-hybrid library CCmax; settings: mean of both orientations
T19 chain: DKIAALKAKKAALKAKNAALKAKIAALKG

[20] = biological target: T20, P2-AA-1HAA-R; experiment: two-hybrid library CCmax; settings: mean of both orientations
T20 chain: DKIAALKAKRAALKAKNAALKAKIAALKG

[21] = biological target: T21, Core_NIIN-es_KEKK; experiment: two-hybrid library CCmax; settings: mean of both orientations
T21 chain: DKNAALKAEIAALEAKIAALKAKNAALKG

[22] = biological target: T22, O13-bN; experiment: two-hybrid library CCNG1
T22 chain: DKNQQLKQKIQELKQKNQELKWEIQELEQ

[23] = biological target: T23, O5-bN; experiment: two-hybrid library CCNG1
T23 chain: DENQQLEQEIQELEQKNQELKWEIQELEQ

[24] = biological target: T24, O10-bN; experiment: two-hybrid library CCNG1; settings: mean of both orientations
T24 chain: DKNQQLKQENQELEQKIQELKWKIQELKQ

[25] = biological target: T25, O3-bN; experiment: two-hybrid library CCNG1
T25 chain: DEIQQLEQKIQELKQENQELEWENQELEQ

[26] = biological target: T26, O14-bN; experiment: two-hybrid library CCNG1
T26 chain: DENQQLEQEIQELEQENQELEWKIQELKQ

[27] = biological target: T27, O9-bN; experiment: two-hybrid library CCNG1; settings: mean of both orientations
T27 chain: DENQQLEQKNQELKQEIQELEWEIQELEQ

[28] = biological target: T28, O6-bN; experiment: two-hybrid library CCNG1
T28 chain: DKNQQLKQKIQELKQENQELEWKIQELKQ

[29] = biological target: T29, O15-bN; experiment: two-hybrid library CCNG1
T29 chain: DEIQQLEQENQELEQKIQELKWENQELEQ

[30] = biological target: T30, O2-bN; experiment: two-hybrid library CCNG1
T30 chain: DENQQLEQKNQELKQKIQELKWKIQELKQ

[31] = biological target: T31, O4-bN; experiment: two-hybrid library CCNG1
T31 chain: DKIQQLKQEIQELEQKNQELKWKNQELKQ

[32] = biological target: T32, O11-bN; experiment: two-hybrid library CCNG1
T32 chain: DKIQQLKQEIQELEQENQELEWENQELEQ

[33] = biological target: T33, O12-bN; experiment: two-hybrid library CCNG1
T33 chain: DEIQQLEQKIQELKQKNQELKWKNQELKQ

[34] = biological target: T34, O7-bN; experiment: two-hybrid library CCNG1
T34 chain: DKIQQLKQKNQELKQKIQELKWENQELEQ

[35] = biological target: T35, O16-bN; experiment: two-hybrid library CCNG1
T35 chain: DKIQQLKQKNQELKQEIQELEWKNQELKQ

[36] = biological target: T36, O8-bN; experiment: two-hybrid library CCNG1
T36 chain: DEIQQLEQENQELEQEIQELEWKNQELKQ

[37] = biological target: T37, P9A-bP; experiment: two-hybrid library CCNG1
T37 chain: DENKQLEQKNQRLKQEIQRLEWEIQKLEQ

[38] = biological target: T38, 4H2691-bN; experiment: two-hybrid library CCNG1
T38 chain: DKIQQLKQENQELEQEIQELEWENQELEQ

[39] = biological target: T39, 4H145-bN; experiment: two-hybrid library CCNG1; settings: mean of both orientations
T39 chain: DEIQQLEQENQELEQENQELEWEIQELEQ

[40] = biological target: T40, 4H2619-bN; experiment: two-hybrid library CCNG1
T40 chain: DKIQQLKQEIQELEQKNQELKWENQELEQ

[41] = biological target: T41, 4H496-bN; experiment: two-hybrid library CCNG1
T41 chain: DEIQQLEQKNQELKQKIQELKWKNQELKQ

[42] = biological target: T42, 4H342-bN; experiment: two-hybrid library CCNG1
T42 chain: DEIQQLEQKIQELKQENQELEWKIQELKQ

[43] = biological target: T43, 4H3632-bN; experiment: two-hybrid library CCNG1
T43 chain: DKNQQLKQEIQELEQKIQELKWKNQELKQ

[44] = biological target: T44, 4H3070-bN; experiment: two-hybrid library CCNG1; settings: mean of both orientations
T44 chain: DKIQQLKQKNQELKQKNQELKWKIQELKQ

[45] = biological target: T45, 4H1072-bH; experiment: two-hybrid library CCNG1
T45 chain: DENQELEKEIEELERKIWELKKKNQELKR

[46] = biological target: T46, 4H470-bH; experiment: two-hybrid library CCNG1
T46 chain: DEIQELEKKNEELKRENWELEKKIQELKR

[47] = biological target: T47, 4H3907-bH; experiment: two-hybrid library CCNG1
T47 chain: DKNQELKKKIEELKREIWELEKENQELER

[48] = biological target: T48, 4H1387-bH; experiment: two-hybrid library CCNG1
T48 chain: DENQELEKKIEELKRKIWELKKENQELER

[49] = biological target: T49, 4H1406-bH; experiment: two-hybrid library CCNG1
T49 chain: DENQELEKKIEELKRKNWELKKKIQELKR

[50] = biological target: T50, 4H344-bH; experiment: two-hybrid library CCNG1
T50 chain: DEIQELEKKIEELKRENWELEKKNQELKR

[51] = biological target: T51, 4H363-bH; experiment: two-hybrid library CCNG1
T51 chain: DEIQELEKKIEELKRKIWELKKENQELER

[52] = biological target: T52, 4H3592-bH; experiment: two-hybrid library CCNG1
T52 chain: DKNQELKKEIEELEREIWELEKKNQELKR

[53] = biological target: T53, 4H1193-bH; experiment: two-hybrid library CCNG1
T53 chain: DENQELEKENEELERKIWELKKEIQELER

[54] = biological target: T54, 4H3961-bH; experiment: two-hybrid library CCNG1
T54 chain: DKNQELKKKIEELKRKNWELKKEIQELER

[55] = biological target: T55, 4H2568-bH; experiment: two-hybrid library CCNG1
T55 chain: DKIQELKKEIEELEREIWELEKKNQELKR

[56] = biological target: T56, 4H2745-bH; experiment: two-hybrid library CCNG1
T56 chain: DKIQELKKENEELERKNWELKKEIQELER

[57] = biological target: T57, 4H3601-bH; experiment: two-hybrid library CCNG1
T57 chain: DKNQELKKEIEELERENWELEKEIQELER

[58] = biological target: T58, 4H1899-bN; experiment: two-hybrid library CCNG1
T58 chain: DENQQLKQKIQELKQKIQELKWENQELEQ

[59] = biological target: T59, 4H2619-bH; experiment: two-hybrid library CCNG1
T59 chain: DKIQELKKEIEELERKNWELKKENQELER

[60] = biological target: T60, 4H3297-bN; experiment: two-hybrid library CCNG1
T60 chain: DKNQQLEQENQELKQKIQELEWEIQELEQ

[61] = biological target: T61, 4H4038-bH; experiment: two-hybrid library CCNG1
T61 chain: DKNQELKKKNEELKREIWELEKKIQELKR

B1: P10A-bP (peptide)
chain: DKNKQLKQENQRLEQKIQRLKWKIQKLKQ
- interaction score [1]: -1.35
- interaction score [2]: -1.01
- interaction score [3]: 1.25
- interaction score [4]: -0.83
- interaction score [5]: -0.87
- interaction score [6]: -1.7
- interaction score [7]: -1.19
- interaction score [8]: -0.806
- interaction score [9]: 0.96
- interaction score [10]: -1.01

B3: Core_NIIN-es_EKEE (peptide)
chain: DENAALEAKIAALKAEIAALEAENAALEG
- interaction score [21]: 1.84

B4: O10-bN (peptide)
chain: DKNQQLKQENQELEQKIQELKWKIQELKQ
- interaction score [22]: -0.398
- interaction score [23]: 0.186
- interaction score [24]: -0.625
- interaction score [25]: 0.129
- interaction score [26]: -1.59
- interaction score [27]: 1.38
- interaction score [28]: -0.552
- interaction score [29]: 0.569
- interaction score [30]: 0.523
- interaction score [31]: -0.783
- interaction score [32]: 0.648
- interaction score [33]: -1.87
- interaction score [34]: 0.28
- interaction score [35]: -0.104
- interaction score [36]: -0.514

B6: 4H145-bN (peptide)
chain: DEIQQLEQENQELEQENQELEWEIQELEQ
- interaction score [38]: -1.25
- interaction score [39]: -0.563
- interaction score [40]: -0.87
- interaction score [41]: -0.916
- interaction score [42]: -2.65
- interaction score [43]: -1.49
- interaction score [44]: 2.01

B7: 4H1072-bH (peptide)
chain: DENQELEKEIEELERKIWELKKKNQELKR
- interaction score [45]: 0.311
- interaction score [46]: -1.58
- interaction score [47]: 1.52
- interaction score [48]: 1.17
- interaction score [49]: 0.174
- interaction score [50]: 1.31
- interaction score [51]: 0.487
- interaction score [52]: 2.09
- interaction score [53]: 0.426
- interaction score [54]: 0.132
- interaction score [55]: -0.817
- interaction score [56]: -0.184
- interaction score [57]: 0.621
- interaction score [58]: 1.84
- interaction score [59]: 1.65
- interaction score [60]: 0.827
- interaction score [61]: 0.634

Next, values leading:

- interaction score [11]: 0.63
- interaction score [12]: 2.29
- interaction score [13]: 0.454
- interaction score [14]: 1.95
- interaction score [15]: 1.28
- interaction score [16]: 1.99
- interaction score [17]: 1.63
- interaction score [18]: 1.76
- interaction score [19]: 0.734
- interaction score [20]: 1.34
B2: P1-AA-1HAA-R (peptide)
chain: DEIAALEAERAALEAENAALEAEIAALEG

- interaction score [37]: 0.853
- interaction score [1]: 0.201
- interaction score [2]: 1.42
- interaction score [3]: -0.677
- interaction score [4]: 0
- interaction score [5]: -0.08
- interaction score [6]: -0.486
- interaction score [7]: -2.06
- interaction score [8]: -2.11
- interaction score [9]: -0.431
- interaction score [10]: -0.091
B5: P11A-bP (peptide)
chain: DENKQLEQEIQRLEQEIQRLEWKNQKLKQ
